Experiment [1] has as its target ZIKV NS4A N-terminal peptide construct (residues 4–58) with N-terminal His-tag and linker (Zika virus (strain MR-766)). The experiment is described as follows: AUC; sedimentation equilibrium; approx. 10, 20 and 40 µM in 50 mM Tris–HCl pH 7.3, 150 mM NaCl; 23,000, 28,000, 34,500 and 42,000 rpm; 280 nm; self-equilibrium models in SEDPHAT, monomer to dimer to trimer.
Experiment [2] has the same target. The experiment is described as follows: AUC; sedimentation velocity; 50 mM Tris–HCl (pH 7.4), approx. 3–300 µM, 50,000 rpm, 20 °C, absorbance at 230 or 280 nm; c(s), c(s,ff0) and hybrid local continuous global discrete (non-interacting) analysis; no detergent or lipids.

The stoichiometry N is a count of units in the complex or per binding partner.

As for “ZIKV NS4A N-terminal peptide construct (residues 4–58) with N-terminal His-tag and linker”, in experiment [1], the percent of monomers in trimers at 50 µM amounted to 50% and the stoichiometry N was found to be 3. Besides, the stoichiometry N in experiment [2] came out at 3.

(Values after PMC10163220.)
